Laboratory results taken from US20230002486A1 (SPARX THERAPEUTICS, published 2023).
Like-named read-outs stand apart in the source and are kept apart here.

Key:
[1] = target: claudin 18.2 (CLDN 18.2), recombinant protein (human); assay: competitive phage ELISA, phage-displayed Fab, coated and soluble CLDN 18.2; design: unit not given here
Description: (§1) After 15 min incubation and washing, anti-M13 antibody/HRP conjugate was added and incubated for 30 min, then developed with TMB for 5-10 min and quenched with 1 M phosphoric acid. Binding signal was analyzed by the plate reader.
(§2) To identify clones with improved solubility, CDR light chain residue 55 (LC55E or L2) was mutated back to Glu on clones 9O47, 5C9oap-oae, 9O24-oae, 9O36-oae, 9O45-oae, and 9O47-oae.

[2] = target: claudin 18.2 (CLDN 18.2), recombinant protein (human); assay: competitive phage ELISA: phage-displayed Fab pre-incubated with a dilution series of soluble CLDN 18.2 (axis: GFP-CLDN 18.2, nM), then added to plate-coated CLDN 18.2
Description: as §1, §2

[3] = target: claudin 18.2 (CLDN 18.2), recombinant protein (human); assay: as above; remark: listed apart in the source
Description: as §1

[4] = target: claudin 18.2 (CLDN 18.2), recombinant protein (human); assay: ELISA, coated CLDN18.2 (FIG. 30A)
[5] = target: T1, PD-L1 (programmed death-ligand 1), recombinant protein (human, UniProt Q9NZQ7 19-238, limits assumed); assay: ELISA, coated human PDL1 (FIG. 30B)
T1 construct: the other ELISAs print only 'PD-L1'; also called human PDL1; CD274
T1 sequence (Q9NZQ7 19-238 limits assumed): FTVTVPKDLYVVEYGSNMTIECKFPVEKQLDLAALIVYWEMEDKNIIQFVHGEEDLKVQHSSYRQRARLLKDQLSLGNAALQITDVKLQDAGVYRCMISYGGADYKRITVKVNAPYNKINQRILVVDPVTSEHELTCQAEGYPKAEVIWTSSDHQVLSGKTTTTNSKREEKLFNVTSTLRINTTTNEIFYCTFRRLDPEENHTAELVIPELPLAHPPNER

[6] = target: T1, PD-L1 (programmed death-ligand 1), …; assay: direct ELISA on coated human PD-L1
[7] = target: claudin 18.2 (CLDN 18.2), recombinant protein (human); assay: direct ELISA on coated CLDN 18.2
mouse PDL1 = mouse PDL1 (mouse, UniProt Q9EP73 19-238, limits assumed); assay: ELISA, coated mouse PDL1 (FIG. 30B)
Chain of mouse PDL1 (Q9EP73 19-238 limits assumed): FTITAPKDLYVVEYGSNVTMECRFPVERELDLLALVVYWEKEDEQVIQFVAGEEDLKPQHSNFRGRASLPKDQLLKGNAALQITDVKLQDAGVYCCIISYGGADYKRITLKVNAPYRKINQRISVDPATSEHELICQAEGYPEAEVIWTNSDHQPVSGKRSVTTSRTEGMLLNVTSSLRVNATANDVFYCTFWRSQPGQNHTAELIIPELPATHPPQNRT

[8] = target: T1, PD-L1 (programmed death-ligand 1), …; assay: direct ELISA, coated PD-L1 (FIG. 28B)
[9] = target: claudin 18.2 (CLDN 18.2), recombinant protein (human); assay: direct ELISA, coated CLDN 18.2 (FIG. 28A)

Chain of claudin 18.2 (CLDN 18.2), recombinant protein (human) (chain, as listed by the source limits assumed): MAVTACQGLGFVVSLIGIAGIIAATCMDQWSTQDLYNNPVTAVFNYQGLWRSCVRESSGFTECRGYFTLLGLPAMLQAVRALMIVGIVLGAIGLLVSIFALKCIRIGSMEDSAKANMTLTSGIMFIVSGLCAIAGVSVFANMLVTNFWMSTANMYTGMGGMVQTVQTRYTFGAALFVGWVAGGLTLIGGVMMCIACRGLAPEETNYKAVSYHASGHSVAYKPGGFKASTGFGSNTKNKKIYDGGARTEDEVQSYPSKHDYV

B1: 9O36-oae with LC55E, phage-displayed Fab (Fab, V domains shown)
VH: EVQLVESGGGLVQPGGSLRLSCAVSGYTFSMNWVRQAPGKGLEWVAWINMYTGEPTYADDFKGRFTISRDDSKNTLYLQMNSLRAEDTAVYYCARLYRGNSLDYWGQGTLVTVSS
VL: DIQMTQSPSSLSASVGDRVTITCKSSQSLLNWGNQKSYLTWYQQKPGKAPKLLIYWASTLESGVPSRFSGSGSGTDYTLTISSLQPEDFATYYCQNAYFFPFTFGQGTKVEIK
notes: built from 9O36-oae with light chain residue 55 (Kabat; the sixth residue of VL CDR2 WASTLMS) mutated back to Glu; also called 9O36 oaeL2
Q: With B1 as the binder, how does the binding affinity [1] read?
A: 0.059

B2: 5C9oap-oaeE (5C9oap-oae with LC55E), phage-displayed Fab (Fab, V domains shown)
VH: EVQLVESGGGLVQPGGSLRLSCAVSGYTFSMNWVRQAPGKGLEWVAWINMYTGERTYADDFKGRFTISRDDSKNTLYLQMNSLRAEDTAVYYCARLYRGNSLDYWGQGTLVTVSS
VL: DIQMTQSPSSLSASVGDRVTITCKSSQSLLNWGNQKSYLTWYQQKPGKAPKLLIYWASTLESGVPSRFSGSGSGTDYTLTISSLQPEDFATYYCQNAYFFPFTFGQGTKVEIK
notes: also called 5C9oap oaeL2; 5C9oap with 5C9oae and L2 mutations
Q: For B2, which “IC50 (read off the curve)” value [2] is on record?
A: ~0.06 nM

Q: What about the binding affinity [1] of the same binder?
A: 0.0593

B3: 5C9ob, phage-displayed Fab (Fab, V domains shown)
VH: EVQLVESGGGLVQPGGSLRLSCAVSGYTFSMNWVRQAPGKGLEWVAWINMYTGEPTYADDFKGRFTISRDDSKNTLYLQMNSLRAEDTAVYYCARLYNGNSLDYWGQGTLVTVSS
VL: DIQMTQSPSSLSASVGDRVTITCKSSQSLLNSGNQKSYLTWYQQKPGKAPKLLIYWASTLESGVPSRFSGSGSGTDYTLTISSLQPEDFATYYCQNAYFFPFTFGQGTKVEIK
notes: also called 5C9o with 5C9ob mutations
Q: Which binding affinity [1] does the source give for B3 here?
A: 0.221

B4: 9O24, phage-displayed Fab (Fab, V domains shown)
VH: EVQLVESGGGLVQPGGSLRLSCAVSGYTFSMNWVRQAPGKGLEWVAWINMYTGEKTYADDFKGRFTISRDDSKNTLYLQMNSLRAEDTAVYYCARLYNGNSLDYWGQGTLVTVSS
VL: DIQMTQSPSSLSASVGDRVTITCKSSQSLLNSGNWKSYLTWYQQKPGKAPKLLIYWASTLVSGVPSRFSGSGSGTDYTLTISSLQPEDFATYYCQNAYSFPFTFGQGTKVEIK
Q: Which “IC50 (read off the curve)” value [3] does the source give for B4 here?
A: ~0.2 nM

Q: And the binding affinity [1]?
A: 0.144

B5: 9O24-oae with LC55E, phage-displayed Fab (Fab, V domains shown)
VH: EVQLVESGGGLVQPGGSLRLSCAVSGYTFSMNWVRQAPGKGLEWVAWINMYTGEKTYADDFKGRFTISRDDSKNTLYLQMNSLRAEDTAVYYCARLYRGNSLDYWGQGTLVTVSS
VL: DIQMTQSPSSLSASVGDRVTITCKSSQSLLNSGNWKSYLTWYQQKPGKAPKLLIYWASTLESGVPSRFSGSGSGTDYTLTISSLQPEDFATYYCQNAYFFPFTFGQGTKVEIK
notes: built from 9O24-oae with light chain residue 55 (Kabat; the sixth residue of VL CDR2 WASTLVS) mutated back to Glu; also called 9O24 oaeL2
Q: B5 was tested. Which binding affinity [1] did it give?
A: 0.0604

B6: 9O36, phage-displayed Fab (Fab, V domains shown)
VH: EVQLVESGGGLVQPGGSLRLSCAVSGYTFSMNWVRQAPGKGLEWVAWINMYTGEPTYADDFKGRFTISRDDSKNTLYLQMNSLRAEDTAVYYCARLYNGNSLDYWGQGTLVTVSS
VL: DIQMTQSPSSLSASVGDRVTITCKSSQSLLNWGNQKSYLTWYQQKPGKAPKLLIYWASTLMSGVPSRFSGSGSGTDYTLTISSLQPEDFATYYCQNAYSFPFTFGQGTKVEIK
Q: How did the binding affinity [1] turn out when B6 was run?
A: 0.108

B7: 9O41, phage-displayed Fab (Fab, V domains shown)
VH: EVQLVESGGGLVQPGGSLRLSCAVSGYTFSMNWVRQAPGKGLEWVAWINMYTGERTYADDFKGRFTISRDDSKNTLYLQMNSLRAEDTAVYYCARLYNGNSLDYWGQGTLVTVSS
VL: DIQMTQSPSSLSASVGDRVTITCKSSQSLLNSGNIKSYLTWYQQKPGKAPKLLIYWASTLRSGVPSRFSGSGSGTDYTLTISSLQPEDFATYYCQNAYSFPFTFGQGTKVEIK
Q: With B7 as the binder, how does the binding affinity [1] read?
A: 0.167

B8: 9O45, phage-displayed Fab (Fab, V domains shown)
VH: EVQLVESGGGLVQPGGSLRLSCAVSGYTFSMNWVRQAPGKGLEWVAWINMYTGETTYADDFKGRFTISRDDSKNTLYLQMNSLRAEDTAVYYCARLYNGNSLDYWGQGTLVTVSS
VL: DIQMTQSPSSLSASVGDRVTITCKSSQSLLNWGNQKSYLTWYQQKPGKAPKLLIYWASTLYSGVPSRFSGSGSGTDYTLTISSLQPEDFATYYCQNAYSFPFTFGQGTKVEIK
Q: Which “IC50 (read off the curve)” value [3] does the source give for B8 here?
A: ~0.1 nM

Q: What about the binding affinity [1] of the same binder?
A: 0.104

B9: 9O45-oae with LC55E, phage-displayed Fab (Fab, V domains shown)
VH: EVQLVESGGGLVQPGGSLRLSCAVSGYTFSMNWVRQAPGKGLEWVAWINMYTGETTYADDFKGRFTISRDDSKNTLYLQMNSLRAEDTAVYYCARLYRGNSLDYWGQGTLVTVSS
VL: DIQMTQSPSSLSASVGDRVTITCKSSQSLLNWGNQKSYLTWYQQKPGKAPKLLIYWASTLESGVPSRFSGSGSGTDYTLTISSLQPEDFATYYCQNAYFFPFTFGQGTKVEIK
notes: built from 9O45-oae with light chain residue 55 (Kabat; the sixth residue of VL CDR2 WASTLYS) mutated back to Glu; also called 9O45 oaeL2
Q: How did the binding affinity [1] turn out when B9 was run?
A: 0.0562

B10: 9O47, phage-displayed Fab (Fab, V domains shown)
VH: EVQLVESGGGLVQPGGSLRLSCAVSGYTFSMNWVRQAPGKGLEWVAWINMYTGEPIYADDFKGRFTISRDDSKNTLYLQMNSLRAEDTAVYYCARLYNGNSLDYWGQGTLVTVSS
VL: DIQMTQSPSSLSASVGDRVTITCKSSQSLLNWGNQKSYLTWYQQKPGKAPKLLIYWASTLFSGVPSRFSGSGSGTDYTLTISSLQPEDFATYYCQNAYSFPFTFGQGTKVEIK
Q: What does the source list for B10?
A: IC50 (read off the curve) [3]: ~0.1 nM; Kd [3]: 0.095 nM; binding affinity [1]: 0.095

B11: 9O47-oaeE (9O47-oae with LC55E), phage-displayed Fab (Fab, V domains shown)
VH: EVQLVESGGGLVQPGGSLRLSCAVSGYTFSMNWVRQAPGKGLEWVAWINMYTGEPIYADDFKGRFTISRDDSKNTLYLQMNSLRAEDTAVYYCARLYRGNSLDYWGQGTLVTVSS
VL: DIQMTQSPSSLSASVGDRVTITCKSSQSLLNWGNQKSYLTWYQQKPGKAPKLLIYWASTLESGVPSRFSGSGSGTDYTLTISSLQPEDFATYYCQNAYFFPFTFGQGTKVEIK
notes: also called 9O47 oaeL2; 9O47 with 5C9oae and L2 mutations
Q: Which “IC50 (read off the curve)” value [2] does the source give for B11 here?
A: ~0.06 nM

Q: What about the binding affinity [1] of the same binder?
A: 0.0533

B12: 9O47E (9O47 with LC55E), phage-displayed Fab (Fab, V domains shown)
VH: EVQLVESGGGLVQPGGSLRLSCAVSGYTFSMNWVRQAPGKGLEWVAWINMYTGEPIYADDFKGRFTISRDDSKNTLYLQMNSLRAEDTAVYYCARLYNGNSLDYWGQGTLVTVSS
VL: DIQMTQSPSSLSASVGDRVTITCKSSQSLLNWGNQKSYLTWYQQKPGKAPKLLIYWASTLESGVPSRFSGSGSGTDYTLTISSLQPEDFATYYCQNAYSFPFTFGQGTKVEIK
notes: also called 9O47 LC55E (L2)
Q: Which binding affinity [1] does the source give for B12 here?
A: 0.141

B13: OB12A4, two-chain anti-CLDN 18.2/anti-PD-L1 (12A4) bispecific antibody (bispecific antibody)
chain 1: not shown
chain 2: EIVLTQSPATLSLSPGERATLSCRASQSVSSYLAWYQQKPGQAPRLLIYDASNRATGIPARFSGSGSGTDFTLTISSLEPEDFAVYYCQQRSNWPTFGQGTKVEIKSGGGGEVQLVESGGGLVQPGGSLRLSCAVSGYTFSMNWVRQAPGKGLEWVAWINMYTGEPTYADDFKGRFTISRDDSKNTLYLQMNSLRAEDTAVYYCARLYNGNSLDYWGQGTLVTVSSGGGGSEPKSSDKTHTCPPCPAPELLGGPSVFLFPPKPKDTLMISRTPEVTCVVVDVSHEDPEVKFNWYVDGVEVHNAKTKPREEQYNSTYRVVSVLTVLHQDWLNGKEYKCKVSNKALPAPIEKTISKAKGQPREPQVCTLPPSREEMTKNQVSLSCAVKGFYPSDIAVEWESNGQPENNYKTTPPVLDSDGSFFLVSKLTVDKSRWQQGNVFSCSVMHEALHNRFTQKSLSLSPGK
Q: Which results are given for B13?
A: Kd [4]: 0.212 nM; Kd [5]: 0.412 nM; EC50 (read off the curve) [6]: ~0.4 nM; EC50 (read off the curve) [7]: ~0.2 nM; Kd (mouse PDL1): ~11.1 µM

B14: Db11-21, heterodimeric (knob/hole) anti-CLDN 18.2/anti-PD-L1 bispecific antibody (bispecific antibody)
chain 1: not shown
chain 2: EIVLTQSPGTLSLSPGERATLSCRASQRVSSSYLAWYQQKPGQAPRLLIYDASSRATGIPDRFSGSGSGTDFTLTISRLEPEDFAVYYCQQYGSLPWTFGQGTKVEIKRSGGGGEVQLVESGGGLVQPGGSLRLSCAVSGYTFSMNWVRQAPGKGLEWVAWINMYTGEPTYADDFKGRFTISRDDSKNTLYLQMNSLRAEDTAVYYCARLYNGNSLDYWGQGTLVTVSSGGGGSEPKSSDKTHTCPPCPAPELLGGPSVFLFPPKPKDTLMISRTPEVTCVVVDVSHEDPEVKFNWYVDGVEVHNAKTKPREEQYNSTYRVVSVLTVLHQDWLNGKEYKCKVSNKALPAPIEKTISKAKGQPREPQVCTLPPSREEMTKNQVSLSCAVKGFYPSDIAVEWESNGQPENNYKTTPPVLDSDGSFFLVSKLTVDKSRWQQGNVFSCSVMHEALHNRFTQKSLSLSPGK
notes: Db11: 5C9ob VL-L1-durvalumab VH-L2-knob Fc; Db21: durvalumab VL-L3-5C9ob VH-L4-hole Fc; also called Db11/Db21
Q: Which Kd [8] does the source give for B14 here?
A: 0.378 nM

Q: What about the Kd [9] of the same binder?
A: 0.104 nM
